B1: library; numbered along this chain (parent)
chain: MRKPRAAVGSGHRKQAASQEGRQKHAKNNSQAKPSACDGLARQPEEVVLQASVSSYHLFRDVAEVTAFRGSLLSWYDQEKRDLPWRRRAEDEMDLDRRAYAVWVSEVMLQQTQVATVINYYTGWMQKWPTLQDLASASLEEVNQLWAGLGYYSRGRRLQEGARKVVEELGGHMPRTAETLQQLLPGVGRYTAGAIASIAFGQATGVVDGNVARVLCRVRAIGADPSSTLVSQQLWGLAQQLVDPARPGDFNQAAMELGATVCTPQRPLCSQCPVESLCRARQRVEQEQLLASGSLSGSPDVEECAPNTGQCHLCLPPSEPWDQTLGVVNFPRKASRKPPREESSATCVLEQPGALGAQILLVQRPNSGLLAGLWEFPSVTWEPSEQLQRKALLQELQRWAGPLPATHLRHLGEVVHTFSHIKLTYQVYGLALEGQTPVTTVPPGARWLTQEEFHTAAVSTAMKKVFRVYQGQQPGTCMGSKRSQVSSPCSRKKPRMGQQVLDNFFRSHISTDAHSLNSAAQ

Variants of: B1
Assay: 8OG:A repair function score (normalized; synonymous = 0, nonsense = -1) (normalized log-likelihood score); higher = more repair activity (WT-like)
Conditions: with 8OG:A DNA repair reporter (GFP) in HEK-293 MUTYH KO cells
How it was run: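 Lentiviral MUTYH cDNA NNN codon-scan libraries in HEK-293 MUTYH knockout cells (10 pg/ml doxycycline) were co-transfected with an 8OG:A GFP repair reporter plus mCherry. At 72 h, viable mCherry+ cells were sorted into GFP+ (repair) and GFP− bins, three replicates per tile, then tile amplicons were sequenced. Per-tile Rosace fitness scores became a normalized repair function score anchored on synonymous and nonsense distributions. Synonymous medians were set to 0 and nonsense to -1; variants under 300 counts per million at the start were removed.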

Variant | 8OG:A repair function score
MRKPRAAVGSGHRKQAASQEGRQKHAKNNSQAKPSACDGLARQPEEVVLQASVSSYHLFRDVAEVTAFRGSLLSWYDQEKRDLPWRRRAEDEMDLDRRAYAVWVSEVMLQQTQVATVINYYTGWMQKWPTLQDLASASLEEVNQLWAGLGYYSRGRRLQEGARKVVEELGGHMPRTAETLQQLLPGVGRYTAGAIASIAFGSATGVVDGNVARVLCRVRAIGADPSSTLVSQQLWGLAQQLVDPARPGDFNQAAMELGATVCTPQRPLCSQCPVESLCRARQRVEQEQLLASGSLSGSPDVEECAPNTGQCHLCLPPSEPWDQTLGVVNFPRKASRKPPREESSATCVLEQPGALGAQILLVQRPNSGLLAGLWEFPSVTWEPSEQLQRKALLQELQRWAGPLPATHLRHLGEVVHTFSHIKLTYQVYGLALEGQTPVTTVPPGARWLTQEEFHTAAVSTAMKKVFRVYQGQQPGTCMGSKRSQVSSPCSRKKPRMGQQVLDNFFRSHISTDAHSLNSAAQ [Q202S] | -0.0817
MRKPRAAVGSGHRKQAASQEGRQKHAKNNSQAKPSACDGLARQPEEVVLQASVSSYHLFRDVAEVTAFRGSLLSWYDQEKRDLPWRRRAEDEMDLDRRAYAVWVSEVMLQQTQVATVINYYTGWMQKWPTLQDLASASLEEVNQLWAGLGYYSRGRRLQEGARKVVEELGGHMPRTAETLQQLLPGVGRYTAGAIASIAFGVATGVVDGNVARVLCRVRAIGADPSSTLVSQQLWGLAQQLVDPARPGDFNQAAMELGATVCTPQRPLCSQCPVESLCRARQRVEQEQLLASGSLSGSPDVEECAPNTGQCHLCLPPSEPWDQTLGVVNFPRKASRKPPREESSATCVLEQPGALGAQILLVQRPNSGLLAGLWEFPSVTWEPSEQLQRKALLQELQRWAGPLPATHLRHLGEVVHTFSHIKLTYQVYGLALEGQTPVTTVPPGARWLTQEEFHTAAVSTAMKKVFRVYQGQQPGTCMGSKRSQVSSPCSRKKPRMGQQVLDNFFRSHISTDAHSLNSAAQ [Q202V] | -0.0323
MRKPRAAVGSGHRKQAASQEGRQKHAKNNSQAKPSACDGLARQPEEVVLQASVSSYHLFRDVAEVTAFRGSLLSWYDQEKRDLPWRRRAEDEMDLDRRAYAVWVSEVMLQQTQVATVINYYTGWMQKWPTLQDLASASLEEVNQLWAGLGYYSRGRRLQEGARKVVEELGGHMPRTAETLQQLLPGVGRYTAGAIASIAFGTATGVVDGNVARVLCRVRAIGADPSSTLVSQQLWGLAQQLVDPARPGDFNQAAMELGATVCTPQRPLCSQCPVESLCRARQRVEQEQLLASGSLSGSPDVEECAPNTGQCHLCLPPSEPWDQTLGVVNFPRKASRKPPREESSATCVLEQPGALGAQILLVQRPNSGLLAGLWEFPSVTWEPSEQLQRKALLQELQRWAGPLPATHLRHLGEVVHTFSHIKLTYQVYGLALEGQTPVTTVPPGARWLTQEEFHTAAVSTAMKKVFRVYQGQQPGTCMGSKRSQVSSPCSRKKPRMGQQVLDNFFRSHISTDAHSLNSAAQ [Q202T] | -0.198
MRKPRAAVGSGHRKQAASQEGRQKHAKNNSQAKPSACDGLARQPEEVVLQASVSSYHLFRDVAEVTAFRGSLLSWYDQEKRDLPWRRRAEDEMDLDRRAYAVWVSEVMLQQTQVATVINYYTGWMQKWPTLQDLASASLEEVNQLWAGLGYYSRGRRLQEGARKVVEELGGHMPRTAETLQQLLPGVGRYTAGAIASIAFGWATGVVDGNVARVLCRVRAIGADPSSTLVSQQLWGLAQQLVDPARPGDFNQAAMELGATVCTPQRPLCSQCPVESLCRARQRVEQEQLLASGSLSGSPDVEECAPNTGQCHLCLPPSEPWDQTLGVVNFPRKASRKPPREESSATCVLEQPGALGAQILLVQRPNSGLLAGLWEFPSVTWEPSEQLQRKALLQELQRWAGPLPATHLRHLGEVVHTFSHIKLTYQVYGLALEGQTPVTTVPPGARWLTQEEFHTAAVSTAMKKVFRVYQGQQPGTCMGSKRSQVSSPCSRKKPRMGQQVLDNFFRSHISTDAHSLNSAAQ [Q202W] | -0.586
MRKPRAAVGSGHRKQAASQEGRQKHAKNNSQAKPSACDGLARQPEEVVLQASVSSYHLFRDVAEVTAFRGSLLSWYDQEKRDLPWRRRAEDEMDLDRRAYAVWVSEVMLQQTQVATVINYYTGWMQKWPTLQDLASASLEEVNQLWAGLGYYSRGRRLQEGARKVVEELGGHMPRTAETLQQLLPGVGRYTAGAIASIAFGYATGVVDGNVARVLCRVRAIGADPSSTLVSQQLWGLAQQLVDPARPGDFNQAAMELGATVCTPQRPLCSQCPVESLCRARQRVEQEQLLASGSLSGSPDVEECAPNTGQCHLCLPPSEPWDQTLGVVNFPRKASRKPPREESSATCVLEQPGALGAQILLVQRPNSGLLAGLWEFPSVTWEPSEQLQRKALLQELQRWAGPLPATHLRHLGEVVHTFSHIKLTYQVYGLALEGQTPVTTVPPGARWLTQEEFHTAAVSTAMKKVFRVYQGQQPGTCMGSKRSQVSSPCSRKKPRMGQQVLDNFFRSHISTDAHSLNSAAQ [Q202Y] | -0.329
MRKPRAAVGSGHRKQAASQEGRQKHAKNNSQAKPSACDGLARQPEEVVLQASVSSYHLFRDVAEVTAFRGSLLSWYDQEKRDLPWRRRAEDEMDLDRRAYAVWVSEVMLQQTQVATVINYYTGWMQKWPTLQDLASASLEEVNQLWAGLGYYSRGRRLQEGARKVVEELGGHMPRTAETLQQLLPGVGRYTAGAIASIAFGQDTGVVDGNVARVLCRVRAIGADPSSTLVSQQLWGLAQQLVDPARPGDFNQAAMELGATVCTPQRPLCSQCPVESLCRARQRVEQEQLLASGSLSGSPDVEECAPNTGQCHLCLPPSEPWDQTLGVVNFPRKASRKPPREESSATCVLEQPGALGAQILLVQRPNSGLLAGLWEFPSVTWEPSEQLQRKALLQELQRWAGPLPATHLRHLGEVVHTFSHIKLTYQVYGLALEGQTPVTTVPPGARWLTQEEFHTAAVSTAMKKVFRVYQGQQPGTCMGSKRSQVSSPCSRKKPRMGQQVLDNFFRSHISTDAHSLNSAAQ [A203D] | -0.191
MRKPRAAVGSGHRKQAASQEGRQKHAKNNSQAKPSACDGLARQPEEVVLQASVSSYHLFRDVAEVTAFRGSLLSWYDQEKRDLPWRRRAEDEMDLDRRAYAVWVSEVMLQQTQVATVINYYTGWMQKWPTLQDLASASLEEVNQLWAGLGYYSRGRRLQEGARKVVEELGGHMPRTAETLQQLLPGVGRYTAGAIASIAFGQHTGVVDGNVARVLCRVRAIGADPSSTLVSQQLWGLAQQLVDPARPGDFNQAAMELGATVCTPQRPLCSQCPVESLCRARQRVEQEQLLASGSLSGSPDVEECAPNTGQCHLCLPPSEPWDQTLGVVNFPRKASRKPPREESSATCVLEQPGALGAQILLVQRPNSGLLAGLWEFPSVTWEPSEQLQRKALLQELQRWAGPLPATHLRHLGEVVHTFSHIKLTYQVYGLALEGQTPVTTVPPGARWLTQEEFHTAAVSTAMKKVFRVYQGQQPGTCMGSKRSQVSSPCSRKKPRMGQQVLDNFFRSHISTDAHSLNSAAQ [A203H] | 0.0237
MRKPRAAVGSGHRKQAASQEGRQKHAKNNSQAKPSACDGLARQPEEVVLQASVSSYHLFRDVAEVTAFRGSLLSWYDQEKRDLPWRRRAEDEMDLDRRAYAVWVSEVMLQQTQVATVINYYTGWMQKWPTLQDLASASLEEVNQLWAGLGYYSRGRRLQEGARKVVEELGGHMPRTAETLQQLLPGVGRYTAGAIASIAFGQCTGVVDGNVARVLCRVRAIGADPSSTLVSQQLWGLAQQLVDPARPGDFNQAAMELGATVCTPQRPLCSQCPVESLCRARQRVEQEQLLASGSLSGSPDVEECAPNTGQCHLCLPPSEPWDQTLGVVNFPRKASRKPPREESSATCVLEQPGALGAQILLVQRPNSGLLAGLWEFPSVTWEPSEQLQRKALLQELQRWAGPLPATHLRHLGEVVHTFSHIKLTYQVYGLALEGQTPVTTVPPGARWLTQEEFHTAAVSTAMKKVFRVYQGQQPGTCMGSKRSQVSSPCSRKKPRMGQQVLDNFFRSHISTDAHSLNSAAQ [A203C] | -0.101
MRKPRAAVGSGHRKQAASQEGRQKHAKNNSQAKPSACDGLARQPEEVVLQASVSSYHLFRDVAEVTAFRGSLLSWYDQEKRDLPWRRRAEDEMDLDRRAYAVWVSEVMLQQTQVATVINYYTGWMQKWPTLQDLASASLEEVNQLWAGLGYYSRGRRLQEGARKVVEELGGHMPRTAETLQQLLPGVGRYTAGAIASIAFGQITGVVDGNVARVLCRVRAIGADPSSTLVSQQLWGLAQQLVDPARPGDFNQAAMELGATVCTPQRPLCSQCPVESLCRARQRVEQEQLLASGSLSGSPDVEECAPNTGQCHLCLPPSEPWDQTLGVVNFPRKASRKPPREESSATCVLEQPGALGAQILLVQRPNSGLLAGLWEFPSVTWEPSEQLQRKALLQELQRWAGPLPATHLRHLGEVVHTFSHIKLTYQVYGLALEGQTPVTTVPPGARWLTQEEFHTAAVSTAMKKVFRVYQGQQPGTCMGSKRSQVSSPCSRKKPRMGQQVLDNFFRSHISTDAHSLNSAAQ [A203I] | 0.0319
MRKPRAAVGSGHRKQAASQEGRQKHAKNNSQAKPSACDGLARQPEEVVLQASVSSYHLFRDVAEVTAFRGSLLSWYDQEKRDLPWRRRAEDEMDLDRRAYAVWVSEVMLQQTQVATVINYYTGWMQKWPTLQDLASASLEEVNQLWAGLGYYSRGRRLQEGARKVVEELGGHMPRTAETLQQLLPGVGRYTAGAIASIAFGQETGVVDGNVARVLCRVRAIGADPSSTLVSQQLWGLAQQLVDPARPGDFNQAAMELGATVCTPQRPLCSQCPVESLCRARQRVEQEQLLASGSLSGSPDVEECAPNTGQCHLCLPPSEPWDQTLGVVNFPRKASRKPPREESSATCVLEQPGALGAQILLVQRPNSGLLAGLWEFPSVTWEPSEQLQRKALLQELQRWAGPLPATHLRHLGEVVHTFSHIKLTYQVYGLALEGQTPVTTVPPGARWLTQEEFHTAAVSTAMKKVFRVYQGQQPGTCMGSKRSQVSSPCSRKKPRMGQQVLDNFFRSHISTDAHSLNSAAQ [A203E] | -0.0816
MRKPRAAVGSGHRKQAASQEGRQKHAKNNSQAKPSACDGLARQPEEVVLQASVSSYHLFRDVAEVTAFRGSLLSWYDQEKRDLPWRRRAEDEMDLDRRAYAVWVSEVMLQQTQVATVINYYTGWMQKWPTLQDLASASLEEVNQLWAGLGYYSRGRRLQEGARKVVEELGGHMPRTAETLQQLLPGVGRYTAGAIASIAFGQFTGVVDGNVARVLCRVRAIGADPSSTLVSQQLWGLAQQLVDPARPGDFNQAAMELGATVCTPQRPLCSQCPVESLCRARQRVEQEQLLASGSLSGSPDVEECAPNTGQCHLCLPPSEPWDQTLGVVNFPRKASRKPPREESSATCVLEQPGALGAQILLVQRPNSGLLAGLWEFPSVTWEPSEQLQRKALLQELQRWAGPLPATHLRHLGEVVHTFSHIKLTYQVYGLALEGQTPVTTVPPGARWLTQEEFHTAAVSTAMKKVFRVYQGQQPGTCMGSKRSQVSSPCSRKKPRMGQQVLDNFFRSHISTDAHSLNSAAQ [A203F] | -0.255
MRKPRAAVGSGHRKQAASQEGRQKHAKNNSQAKPSACDGLARQPEEVVLQASVSSYHLFRDVAEVTAFRGSLLSWYDQEKRDLPWRRRAEDEMDLDRRAYAVWVSEVMLQQTQVATVINYYTGWMQKWPTLQDLASASLEEVNQLWAGLGYYSRGRRLQEGARKVVEELGGHMPRTAETLQQLLPGVGRYTAGAIASIAFGQGTGVVDGNVARVLCRVRAIGADPSSTLVSQQLWGLAQQLVDPARPGDFNQAAMELGATVCTPQRPLCSQCPVESLCRARQRVEQEQLLASGSLSGSPDVEECAPNTGQCHLCLPPSEPWDQTLGVVNFPRKASRKPPREESSATCVLEQPGALGAQILLVQRPNSGLLAGLWEFPSVTWEPSEQLQRKALLQELQRWAGPLPATHLRHLGEVVHTFSHIKLTYQVYGLALEGQTPVTTVPPGARWLTQEEFHTAAVSTAMKKVFRVYQGQQPGTCMGSKRSQVSSPCSRKKPRMGQQVLDNFFRSHISTDAHSLNSAAQ [A203G] | -0.165
